Source: patent US20250199010A1

Key:
Mouse EGFR-Fc (mouse) [1] = molecular target: Mouse EGFR-Fc (mouse) (UniProt Q01279); assay: SPR, 25 °C
[2] = molecular target: human EGFR-Fc mutant (L325V, S340A) (human) (UniProt P00533); assay: SPR (Biacore), 37 °C
Mouse EGFR-Fc (mouse) [3] = molecular target: Mouse EGFR-Fc (mouse) (UniProt Q01279); assay: SPR (Biacore), 25 °C
Human EGFR-Fc (human) [4] = molecular target: Human EGFR-Fc (human) (UniProt P00533); assay: yeast surface display titration with human EGFR (panel Yeast display: HuL6-7D12)
Mouse EGFR-Fc (mouse) [5] = molecular target: Mouse EGFR-Fc (mouse) (UniProt Q01279); assay: SPR, murine EGFR-Fc
[6] = molecular target: human EGFR-Fc mutant (L325V, S340A) (human) (UniProt P00533); assay: SPR, human EGFR-Fc (L325V, S340A)
Mouse EGFR-Fc (mouse) [7] = molecular target: Mouse EGFR-Fc (mouse) (UniProt Q01279); assay: SPR, murine EGFR-Fc; bracket from the bars of 7D12 and 9G8 to this bar
Human EGFR-Fc (human) [8] = molecular target: Human EGFR-Fc (human) (UniProt P00533); assay: SPR (Biacore), 37 °C

| Kd (Mouse EGFR-Fc (mouse) [5]) [nM] | Kd [6] [nM] | Substance | further results |
| --- | --- | --- | --- |
|  |  | 7D12 (VHH) | Kd (Mouse EGFR-Fc (mouse) [1]): 7200 nM; Kd [2]: 210 nM; Kd (Mouse EGFR-Fc (mouse) [3]): 7200 nM; Kd (Human EGFR-Fc (human) [4]): 2.1 nM |
| 192 | 0.6 | 7D12-(AP)12-9G8 | k' (Mouse EGFR-Fc (mouse) [7]): 950000 |
| 0.7 | 0.04 | 7D12-(AP)12-VSG-[-AA]9G8 |  |
| 621 | 2 | 7D12-(E4K4)5-9G8 |  |
| 194 |  | 7D12-(EAAAK)8-9G8 |  |
| 1.2 |  | 7D12-(EAAAK)8-VSG-[-AA]9G8 |  |
| 162 |  | 7D12-(GGGS)3-9G8 |  |
| 8.8 |  | 7D12-FFH-(EAAAK)6-GGG-[-AA]9G8 |  |
| 17 |  | 7D12-KGR-(EAAAK)8-AGG-[-AA]9G8 |  |
| 3.1 |  | 7D12-SSV-(E4K4)4-GPG-[-AA]9G8 |  |
| 1.2 | 0.04 | 7D12-WMV-(GGGS)6-VTG-[-AA]9G8 |  |
|  |  | 9G8 (VHH) | Kd (Human EGFR-Fc (human) [8]): 3.8 nM; Kd [2]: 13 nM |
